Reference: US20220017622A1 (Pfizer, published 2022)
Numbering of substitutions follows the chain as printed. Numbers in names are those of the source. Each block holds one binder with its values, some of them ahead of it.

Experiments:
[1] = target: T1, human CD3 (delta/epsilon heterodimer) (human, UniProt P07766 23-126; P04234 22-105); test: SPR 37 C; CD3 delta/epsilon on anti-His chip, bispecific (transient expi293) analyte
T1 construct: captured on an anti-His chip, so it carries a His tag; also called huCD3

[2] = target: T2, cyno CD3 (delta/epsilon heterodimer) (cyno, UniProt Q95LI5 22-117; Q95LI8 22-105); test: as above
T2 construct: also called cyCD3

[3] = target: T1, human CD3 (delta/epsilon heterodimer); test: SPR 37 C; CD3 delta/epsilon on anti-His chip, bispecific (stable CHO) analyte
[4] = target: T2, cyno CD3 (delta/epsilon heterodimer); test: as above
[5] = target: T3, cynomolgus CD3 on cells from cynomolgus PBMCs (cynomolgus, UniProt Q95LI5 22-198; Q95LI8 22-171); test: flow cytometry on cyno PBMC, 37 C
T3 construct: whole, on cells; also called Cyno PBMC

[6] = target: T1, human CD3 (delta/epsilon heterodimer); test: SPR 37 C; CD3 delta/epsilon on anti-His chip, bispecific analyte
[7] = target: T2, cyno CD3 (delta/epsilon heterodimer); test: as above
[8] = target: T4, human CD3 on primary human T cells (human, UniProt P07766 23-207; P04234 22-171); test: flow cytometry on primary human T cells, 37 C
T4 construct: whole, on cells; On cells the whole CD3/TCR complex is present

[9] = target: T1, human CD3 (delta/epsilon heterodimer); test: SPR 37 C; CD3 delta/epsilon on anti-His chip, bispecific (IgG1 scaffold) analyte
[10] = target: T5, human B7-H4 extracellular domain (human, UniProt Q7Z7D3 29-258); test: SPR 37 C; bispecific (IgG1 scaffold) on anti-hFc chip, ECD analyte
T5 construct: Soluble ECD used as SPR analyte; also called huB7-H4 ECD; huB7-H4
T5 sequence: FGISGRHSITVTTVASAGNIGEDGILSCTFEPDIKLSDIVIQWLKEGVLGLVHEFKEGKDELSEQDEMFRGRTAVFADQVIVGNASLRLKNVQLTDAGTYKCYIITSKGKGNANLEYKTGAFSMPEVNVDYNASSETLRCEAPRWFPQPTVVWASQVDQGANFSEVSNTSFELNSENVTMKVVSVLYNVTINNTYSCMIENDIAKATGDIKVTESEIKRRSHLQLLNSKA

human B7-H4 on cells = target: T6, human B7-H4 on cells (human, UniProt Q7Z7D3 25-282); test: cell-based or functional assay
T6 sequence (looked up): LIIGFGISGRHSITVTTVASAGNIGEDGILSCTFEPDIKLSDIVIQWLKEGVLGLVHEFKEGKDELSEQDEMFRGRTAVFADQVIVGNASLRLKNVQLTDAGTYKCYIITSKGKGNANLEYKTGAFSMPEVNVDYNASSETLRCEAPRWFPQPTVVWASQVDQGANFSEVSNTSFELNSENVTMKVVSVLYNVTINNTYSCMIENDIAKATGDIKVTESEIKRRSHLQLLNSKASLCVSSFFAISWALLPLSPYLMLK

[11] = target: T7, human B7-H4 extracellular domain (human, UniProt Q7Z7D3 29-258); test: SPR Biacore 8K 25 C; mAb captured on anti-human Fc, huB7-H4 ECD analyte, 1:1 fit;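 also: antibodies tested as IgG1, running buffer HBS-EP+ at pH 7.4, rate constants and affinity from a 1:1 Langmuir model fit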
T7 construct: For SPR it says only human B7-H4 ECD; also called Hu B7-H4 ECD; huB7-H4 ECD
T7 sequence: T5 sequence

[12] = target: T7, human B7-H4 extracellular domain; test: competition ELISA on coated huB7-H4 ECD; competitor biotinylated 0052 (by series, not given); second value of the fourth IC50 column
[13] = target: T7, human B7-H4 extracellular domain; test: competition ELISA on coated huB7-H4 ECD; competitor biotinylated 0052 (by series, not given); first of the four IC50 [nM] columns; competitor not given

T2 sequence (Q95LI5 22-117, stated change not applied, chain 1 of 2): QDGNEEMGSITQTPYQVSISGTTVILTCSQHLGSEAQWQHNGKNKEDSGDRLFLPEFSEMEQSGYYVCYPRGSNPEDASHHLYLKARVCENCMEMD
T2 sequence (Q95LI8 22-105, stated change not applied, chain 2 of 2): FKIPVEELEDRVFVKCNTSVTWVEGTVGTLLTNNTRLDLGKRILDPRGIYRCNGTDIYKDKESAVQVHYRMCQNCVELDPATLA
T1 sequence (P07766 23-126, stated change not applied, chain 1 of 2): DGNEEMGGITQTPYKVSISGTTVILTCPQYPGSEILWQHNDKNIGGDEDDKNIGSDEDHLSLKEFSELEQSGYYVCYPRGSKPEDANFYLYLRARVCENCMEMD
T1 sequence (P04234 22-105, stated change not applied, chain 2 of 2): as the sequence (Q95LI8 22-105, stated change not applied, chain 2 of 2) above, with V5I, K15N, V20I, T32S, N33D, N34I, A64T, N74S, L83V counted along it
T3 sequence (Q95LI5 22-198, chain 1 of 2): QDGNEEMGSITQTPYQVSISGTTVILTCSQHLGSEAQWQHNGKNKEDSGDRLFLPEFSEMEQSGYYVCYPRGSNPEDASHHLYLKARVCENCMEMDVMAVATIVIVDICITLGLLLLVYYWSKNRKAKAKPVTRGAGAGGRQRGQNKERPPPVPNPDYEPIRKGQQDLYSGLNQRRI
T3 sequence (Q95LI8 22-171, chain 2 of 2): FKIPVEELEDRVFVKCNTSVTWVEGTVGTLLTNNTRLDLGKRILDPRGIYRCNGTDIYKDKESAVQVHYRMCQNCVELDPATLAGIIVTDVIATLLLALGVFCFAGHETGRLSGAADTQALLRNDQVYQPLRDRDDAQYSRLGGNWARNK
T4 sequence (P07766 23-207, chain 1 of 2): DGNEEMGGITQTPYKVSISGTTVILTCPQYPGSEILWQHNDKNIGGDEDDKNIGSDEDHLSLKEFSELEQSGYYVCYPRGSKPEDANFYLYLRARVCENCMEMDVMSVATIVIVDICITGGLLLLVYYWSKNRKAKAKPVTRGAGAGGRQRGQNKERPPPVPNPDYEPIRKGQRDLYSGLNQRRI
T4 sequence (P04234 22-171, chain 2 of 2): as the sequence (Q95LI8 22-171, chain 2 of 2) above, with V5I, K15N, V20I, T32S, N33D, N34I, A64T, N74S, L83V, R141H counted along it

B3: B7-H4xCD3 bispecific antibody 0089 (bispecific antibody, IgG1)
heavy 1: QVQLQQWGAGLLKPSETLSLTCAVYGGSFSGYYWNWIRQPPGKGLEWIGEINHSGSTKYNPSLKSRVTISGDTSKNQFSLKLNSVTAADTAVYYCVRGLYNWNVDSWGQGTLVTVSSASTKGPSVFPLAPSSKSTSGGTAALGCLVKDYFPEPVTVSWNSGALTSGVHTFPAVLQSSGLYSLSSVVTVPSSSLGTQTYICNVNHKPSNTKVDKKVEPKSCEKTHTCPECPAPEAAGAPSVFLFPPKPKDTLMISRTPEVTCVVVDVSHEDPEVKFNWYVDGVEVHNAKTKPREEQYNSTYRVVSVLTVLHQDWLNGKEYKCKVSNKALPAPIEKTISKAKGQPREPQVYTLPPSREEMTKNQVSLTCEVKGFYPSDIAVEWESNGQPENNYKTTPPVLDSDGSFFLYSKLTVDKSRWQQGNVFSCSVMHEALHNHYTQKSLSLSPG
light 1: DIQMTQSPSSLSASVGDRVTITCRASQGIRNDLGWYQQKPGKAPKRLIYVASSLQSGVPSRFSGSGSGTEFTLTISSLQPEDFATYYCLQHNSYPYTFGQGTKLEIKRTVAAPSVFIFPPSDEQLKSGTASVVCLLNNFYPREAKVQWKVDNALQSGNSQESVTEQDSKDSTYSLSSTLTLSKADYEKHKVYACEVTHQGLSSPVTKSFNRGEC
heavy 2: EVQLVESGGGLVQPGGSLRLSCAASGFTFSDYYMTWVRQAPGKGLEWVAFIRNQARGYTSDHNPSVKGRFTISRDNAKNSLYLQMNSLRAEDTAVYYCARDRPSYYVLDYWGQGTTVTVSSASTKGPSVFPLAPSSKSTSGGTAALGCLVKDYFPEPVTVSWNSGALTSGVHTFPAVLQSSGLYSLSSVVTVPSSSLGTQTYICNVNHKPSNTKVDKKVEPKSCRKTHTCPRCPAPEAAGAPSVFLFPPKPKDTLMISRTPEVTCVVVDVSHEDPEVKFNWYVDGVEVHNAKTKPREEQYNSTYRVVSVLTVLHQDWLNGKEYKCKVSNKALPAPIEKTISKAKGQPREPQVYTLPPSREEMTKNQVSLTCLVKGFYPSDIAVEWESNGQPENNYKTTPPVLDSDGSFFLYSRLTVDKSRWQQGNVFSCSVMHEALHNHYTQKSLSLSPG
light 2: DIQMTQSPSSLSASVGDRVTITCTSSQSLFNVRSQKNYLAWYQQKPGKAPKLLIYWASTRESGVPSRFSGSGSGTDFTLTISSLQPEDFATYYCKQSYDLFTFGGGTKVEIKRTVAAPSVFIFPPSDEQLKSGTASVVCLLNNFYPREAKVQWKVDNALQSGNSQESVTEQDSKDSTYSLSSTLTLSKADYEKHKVYACEVTHQGLSSPVTKSFNRGEC
notes: Chains 1-2: B7-H4 arm; chains 3-4: CD3 arm; IgG1 EEE/RRR scaffold
- Kd [9]: 40 nM
- koff [9]: 0.026 s⁻¹
- kon [9]: 653000 M⁻¹ s⁻¹
- Kd [10]: 22.3 nM
- koff [10]: 0.00588 s⁻¹
- kon [10]: 264000 M⁻¹ s⁻¹
- T cell mediated tumor cell killing EC50, HCC1954-Luc (human B7-H4 on cells): 75 nM
- T cell mediated tumor cell killing, MDA-MB-468 (human B7-H4 on cells): 45

B4: B7-H4 antibody 0047 (antibody, human IgG1, kappa, V domains shown)
VH: QVQLQQWGAGLLKPSETLPLTCAVYGGSFSGYYWNWIRQPPGKGLEWIGEINHSGSATYNPSLKSRVTISVDTSKNHFSLKLSSVTAADTAVYFCARGLYNWNVDHWGQGTLVTVSS
VL: DIQMTQSPSSLSASVGDRVTITCRASQGIRNDLGWYQQKPGKAPKRLIYAASSLQSGVPSRFSGSGSGTEFTLTISSLQPEDFATYYCLQHNSYPRTFGGGTKVEIKR
notes: also called 7H7
- Kd [11]: 3.79 nM
- koff [11]: 0.000635 s⁻¹
- kon [11]: 168000 M⁻¹ s⁻¹
- IC50 [12]: 1 nM
- IC50 [13]: 4.8 nM

Other lines, results leading:

- Kd [1]: 62.5 nM
- koff [1]: 0.0309 s⁻¹
- kon [1]: 499000 M⁻¹ s⁻¹
- Kd [2]: 70.8 nM
- koff [2]: 0.0317 s⁻¹
- kon [2]: 449000 M⁻¹ s⁻¹
- Kd [3]: 49.8 nM
- koff [3]: 0.0317 s⁻¹
- kon [3]: 638000 M⁻¹ s⁻¹
- Kd [4]: 58.8 nM
- koff [4]: 0.0305 s⁻¹
- kon [4]: 519000 M⁻¹ s⁻¹
- EC50 [5]: 46 nM
- Kd [6]: 63.5 nM
- koff [6]: ~0.0337 s⁻¹
- kon [6]: 531000 M⁻¹ s⁻¹
- Kd [7]: 66.8 nM
- koff [7]: ~0.0338 s⁻¹
- kon [7]: 506000 M⁻¹ s⁻¹
- EC50 [8]: 64 nM
B1: B7-H4xCD3 bispecific antibody 1167 (bispecific antibody)
heavy 1: EVQLLESGGGLVQPGGSLRLSCAASGFTFSSYAMSWVRQAPGKGLEWVSAISGGGGSTYYADSVKGRFTISRDNSKNTLYLQMNSLRAEDTAVYYCARDIQWYGESTLFDYWGQGTLVTVSSASTKGPSVFPLAPCSRSTSESTAALGCLVKDYFPEPVTVSWNSGALTSGVHTFPAVLQSSGLYSLSSVVTVPSSNFGTQTYTCNVDHKPSNTKVDKTVERKCEVECPECPAPPVAGPSVFLFPPKPKDTLMISRTPEVTCVVVAVSHEDPEVQFNWYVDGVEVHNAKTKPREEQFNSTFRVVSVLTVVHQDWLNGKEYKCKVSNKGLPSSIEKTISKTKGQPREPQVYTLPPSREEMTKNQVSLTCEVKGFYPSDIAVEWESNGQPENNYKTTPPMLDSDGSFFLYSKLTVDKSRWQQGNVFSCSVMHEALHNHYTQKSLSLSPGK
light 1: DIQMTQSPSSLSASVGDRVTITCRASQSTRSHLAWYQQKPGKAPKLLIYKASSLEGGVPSRFSGSGSGTDFTLTISSLQPEDFATYYCQQYGSYSRTFGQGTKVEIKRTVAAPSVFIFPPSDEQLKSGTASVVCLLNNFYPREAKVQWKVDNALQSGNSQESVTEQDSKDSTYSLSSTLTLSKADYEKHKVYACEVTHQGLSSPVTKSFNRGEC
heavy 2: EVQLVESGGGLVQPGGSLRLSCAASGFTFSDYYMTWVRQAPGKGLEWVAFIRNQARGYTSDHNPSVKGRFTISRDNAKNSLYLQMNSLRAEDTAVYYCARDRPSYYVLDYWGQGTTVTVSSASTKGPSVFPLAPCSRSTSESTAALGCLVKDYFPEPVTVSWNSGALTSGVHTFPAVLQSSGLYSLSSVVTVPSSNFGTQTYTCNVDHKPSNTKVDKTVERKCRVRCPRCPAPPVAGPSVFLFPPKPKDTLMISRTPEVTCVVVAVSHEDPEVQFNWYVDGVEVHNAKTKPREEQFNSTFRVVSVLTVVHQDWLNGKEYKCKVSNKGLPSSIEKTISKTKGQPREPQVYTLPPSREEMTKNQVSLTCLVKGFYPSDIAVEWESNGQPENNYKTTPPMLDSDGSFFLYSRLTVDKSRWQQGNVFSCSVMHEALHNHYTQKSLSLSPGK
light 2: B3 light 2
notes: Chains 1-2: B7-H4 arm; chains 3-4: CD3 arm; Full-length chains; IgG2 dA D265A EEE/RRR

- EC50 [5]: 27 nM
- Kd [6]: 62.4 nM
- koff [6]: ~0.0339 s⁻¹
- kon [6]: 543000 M⁻¹ s⁻¹
- Kd [7]: 68.8 nM
- koff [7]: ~0.0341 s⁻¹
- kon [7]: 496000 M⁻¹ s⁻¹
- EC50 [8]: 44.8 nM
B2: B7-H4xCD3 bispecific antibody 1156 (bispecific antibody, IgG2)
heavy 1: EVQLVESGGGLVQPGGSLRLSCAVSGGSFSGYYWNWVRQAPGKGLEWIGEINHSGSATYNPSLKSRVTISVDTAKNSLYLQMNSLRAEDTAVYYCARGLYNWNVDHWGQGTLVTVSSASTKGPSVFPLAPCSRSTSESTAALGCLVKDYFPEPVTVSWNSGALTSGVHTFPAVLQSSGLYSLSSVVTVPSSNFGTQTYTCNVDHKPSNTKVDKTVERKCEVECPECPAPPVAGPSVFLFPPKPKDTLMISRTPEVTCVVVAVSHEDPEVQFNWYVDGVEVHNAKTKPREEQFNSTFRVVSVLTVVHQDWLNGKEYKCKVSNKGLPSSIEKTISKTKGQPREPQVYTLPPSREEMTKNQVSLTCEVKGFYPSDIAVEWESNGQPENNYKTTPPMLDSDGSFFLYSKLTVDKSRWQQGNVFSCSVMHEALHNHYTQKSLSLSPGK
light 1: B3 light 1 with V50A, E70D, S93A, Y96R, Q100G, L104V
heavy 2: B1 heavy 2
light 2: B3 light 2
notes: as for B1
